From the supplement of paper PMC10724198
± gives the standard deviation of the averaged measurements.

How the values were obtained:
Saccharomyces cerevisiae [1] = experiment: protein stability index of tFT-peptide fusion (C-terminal peptide) (PSI (0-1 scale)); higher = more stable (slower turnover); settings: genetic background: wild type; temperature: 30 C
Saccharomyces cerevisiae [2] = experiment: as above
Protocol: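 MPS profiling in S. cerevisiae of the tFT-X12 degron library: putative degron peptides plus stable controls, 12 aa, fused to the C-terminus of a sfGFP-mCherry timer. Cells are FACS-sorted into 8 mCherry/sfGFP bins and deep-sequenced. PSI runs from 0 (unstable) to 1 (stable). Backgrounds are wild type, das1Δ and doa10Δ at 30 °C, and wild type, das1Δ, cdc34-1 and cdc53-1 at 37 °C; 2-3 technical replicates each.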

[3] = genetic background: cdc34-1, temperature: 37 C
[4] = genetic background: cdc53-1, temperature: 37 C
[5] = genetic background: das1 deletion, temperature: 30 C
[6] = genetic background: das1 deletion, temperature: 37 C
[7] = genetic background: doa10 deletion, temperature: 30 C
[8] = genetic background: wild type, temperature: 30 C
[9] = genetic background: wild type, temperature: 37 C
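Also: PSI is a weighted mean of sequencing reads over stability bins, variants kept only with over 10 reads, mCherry proximal and sfGFP distal, peptide attached via GGGS linker.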

Sequence	protein stability index (Saccharomyces cerevisiae [1])	protein stability index (Saccharomyces cerevisiae [2]; [3])	protein stability index (Saccharomyces cerevisiae [2]; [4])	protein stability index (Saccharomyces cerevisiae [2]; [5])	protein stability index (Saccharomyces cerevisiae [2]; [6])	protein stability index (Saccharomyces cerevisiae [2]; [7])	protein stability index (Saccharomyces cerevisiae [2]; [8])	protein stability index (Saccharomyces cerevisiae [2]; [9])
LIIVFGFTSILR	0.419 ± 0.093	0.441 ± 0.02	0.572 ± 0.018	0.36 ± 0.043	0.526 ± 0.018	0.355 ± 0.015	0.328 ± 0.037	0.509 ± 0.048
LIPFPGFFILLT	0.436 ± 0.0094	0.244 ± 0.021	0.13 ± 0.0096	0.277 ± 0.021	0.37 ± 0.046	0.49 ± 0.023	0.28 ± 0.05	0.315 ± 0.054
LISRGNRALFCI	0.314 ± 0.02	0.678 ± 0.044	0.739 ± 0.013	0.589 ± 0.017	0.755 ± 0.029	0.204 ± 0.015	0.224 ± 0.03	0.482 ± 0.016
LLAREILVIVAV	0.307 ± 0.0051	0.181 ± 0.0035	0.229 ± 0.017	0.207 ± 0.032	0.32 ± 0.017	0.166 ± 0.0048	0.204 ± 0.015	0.271 ± 0.0034
LLCLAVVLWFVV	0.307 ± 0.03	0.216 ± 0.035	0.338 ± 0.019	0.239 ± 0.031	0.4051 ± 0.0011	0.212 ± 0.012	0.241 ± 0.024	0.3362 ± 0.0005
LLCSPPPLTVPA	0.454 ± 0.025	0.394 ± 0.044	0.4424 ± 0.00065	0.324 ± 0.045	0.478 ± 0.017	0.275 ± 0.0087	0.327 ± 0.034	0.44 ± 0.0091
LLFVLWLSFFVL	0.346 ± 0.031	0.3135 ± 0.0016	0.384 ± 0.074	0.272 ± 0.03	0.449 ± 0.012	0.239 ± 0.0027	0.247 ± 0.034	0.382 ± 0.04
LLGDFAVLTCVF	0.453 ± 0.0086	0.468 ± 0.049	0.496 ± 0.039	0.372 ± 0.024	0.4825 ± 0.0011	0.343 ± 0.0054	0.377 ± 0.027	0.465 ± 0.022
LLGGFAAFWRIL	0.226 ± 0.06	0.631 ± 0.061	0.713 ± 0.0012	0.618 ± 0.012	0.753 ± 0.014	0.135 ± 0.015	0.15 ± 0.02	0.297 ± 0.026
LLLFLHILRYVF	0.414 ± 0.026	0.541 ± 0.026	0.551 ± 0.015	0.417 ± 0.028	0.581 ± 0.046	0.398 ± 0.025	0.368 ± 0.016	0.529 ± 0.088
LLLFLHSTLTCR	0.49 ± 0.011	0.474 ± 0.056	0.543 ± 0.01	0.408 ± 0.035	0.618 ± 0.018	0.383 ± 0.011	0.411 ± 0.02	0.558 ± 0.022
LLLLASLFFRLA	0.3 ± 0.016	0.522 ± 0.023	0.595 ± 0.01	0.467 ± 0.031	0.614 ± 0.03	0.177 ± 0.011	0.194 ± 0.015	0.37 ± 0.028
LLLPVFLVFSVS	0.326 ± 0.034	0.295 ± 0.046	0.417 ± 0.005	0.269 ± 0.037	0.482 ± 0.012	0.2258 ± 0.0016	0.256 ± 0.03	0.47 ± 0.058
LLLSLLVLRFFL	0.423 ± 0.027	0.37 ± 0.043	0.309 ± 0.007	0.356 ± 0.047	0.536 ± 0.033	0.5037 ± 0.0014	0.357 ± 0.028	0.501 ± 0.019
LLMPLLLHSLVW	0.409 ± 0.005	0.354 ± 0.021	0.396 ± 0.012	0.308 ± 0.019	0.455 ± 0.0014	0.308 ± 0.0067	0.335 ± 0.0096	0.434 ± 0.024
LLPSNFLLLVGV	0.289 ± 0.032	0.219 ± 0.051	0.204 ± 0.011	0.217 ± 0.03	0.325 ± 0.014	0.208 ± 0.012	0.231 ± 0.023	0.2857 ± 0.0024
LMIVSVRLLFFL	0.2661 ± 0.002	0.229 ± 0.049	0.39 ± 0.0024	0.232 ± 0.029	0.419 ± 0.015	0.1617 ± 0.00049	0.172 ± 0.019	0.282 ± 0.014
LPAICFWCVLVG	0.201 ± 0.0059	0.0778 ± 0.014	0.136 ± 0.00061	0.164 ± 0.025	0.273 ± 0.035	0.133 ± 0.024	0.162 ± 0.04	0.21 ± 0.013
LPNLPPTSPERH	0.663 ± 0.33	0.638 ± 0.0034	0.734 ± 0.015	0.652 ± 0.021	0.7046 ± 0.0062	0.6558 ± 0.0059	0.659 ± 0.015	0.703 ± 0.0097
LPPSPPCQSPAL	0.743 ± 0.018	0.667 ± 0.021	0.716 ± 0.012	0.672 ± 0.015	0.728 ± 0.012	0.681 ± 0.03	0.667 ± 0.019	0.685 ± 0.013
